Laboratory results reported in US20230035659A1, “Compositions and Methods for TTR Gene Editing and Treating ATTR Amyloidosis Comprising a Corticosteroid or Use Thereof” (Intellia Therapeutics, Inc., priority 2019, published 2023).
Strand notation (5' to 3'): a small letter for the sugar, then the base; units joined by * are phosphorothioate-linked, units joined directly phosphodiester-linked; [ ] holds rarer units or linkages, { } end groups; capitals alone tell only the bases. m = 2'-O-methyl; r = 2'-OH (RNA)

How the values were obtained:
TTR [1] = test: TTR editing in primary cyno hepatocytes treated with LNP formulated Spy Cas9 mRNA (SEQ ID NO: 2) and sgRNAs, 12.5 ng mRNA; assay type: cell-based, cynomolgus monkey; conditions: LNP formulated Spy Cas9 mRNA (SEQ ID NO: 2) and cyno matched sgRNA, lysed 72 hours post treatment
Protocol: (§1) Primary liver hepatocytes. Primary human liver hepatocytes (PHH) and primary cynomolgus liver hepatocytes (PCH) (Gibco) were cultured per the manufacturer's protocol (Invitrogen, protocol 11.28.2012). In brief, the cells were thawed and resuspended in hepatocyte thawing medium with supplements (Gibco, Cat. CM7000) followed by centrifugation at 100 g for 10 minutes for human and 80 g for 4 minutes for cyno. The supernatant was discarded and the pelleted cells resuspended in hepatocyte plating medium plus supplement pack (Invitrogen, Cat. A1217601 and CM3000). Cells were counted and plated on Bio-coat collagen I coated 96-well plates (ThermoFisher, Cat. 877272) at a density of 33,000 cells/well for human or 60,000 cells/well for cyno (or 65,000 cells/well when assaying effects on TTR protein, described further below). Plated cells were allowed to settle and adhere for 6 or 24 hours in a tissue culture incubator at 37° C. and 5% CO2 atmosphere. After incubation cells were checked for monolayer formation and media was replaced with hepatocyte culture medium with serum-free supplement pack (Invitrogen, Cat. A1217601 and CM4000).
In general, the lipid nanoparticle components were dissolved in 100% ethanol with the lipid component of various molar ratios. The RNA cargos were dissolved in 25 mM citrate, 100 mM NaCl, pH 5.0, resulting in a concentration of RNA cargo of approximately 0.45 mg/mL. The LNPs were formulated with a lipid amine to RNA phosphate (N:P) molar ratio of about 4.5 or about 6, with the ratio of mRNA to gRNA at 1:1 by weight.
The LNPs were formed by microfluidic mixing of the lipid and RNA solutions using a Precision Nanosystems NanoAssemblr™ Benchtop Instrument, according to the manufacturer's protocol. A 2:1 ratio of aqueous to organic solvent was maintained during mixing using differential flow rates. […]
Additional PCR was performed per the manufacturer's protocols (Illumina) to add chemistry for sequencing. […] The reads were aligned to a reference genome (e.g., the human reference genome (hg38), the cynomologus reference genome (mf5), the rat reference genome (rn6), or the mouse reference genome (mm10)) after eliminating those having low quality scores. The resulting files containing the reads were mapped to the reference genome (BAM files), where reads that overlapped the target region of interest were selected and the number of wild type reads versus the number of reads which contain an insertion, substitution, or deletion was calculated.
The editing percentage (e.g., the “editing efficiency” or “percent editing” or “indel frequency”) is defined as the total number of sequence reads with insertions/deletions (“indels”) or substitutions over the total number of sequence reads, including wild type. […]

TTR [2] = test: TTR editing dose response (EC50, maximum editing) in primary human hepatocytes treated with LNP formulated U-depleted Spy Cas9 mRNA and sgRNAs; assay type: cell-based
Protocol: as §1
(§2) For LNPs prepared using the cross-flow technique, the LNPs were formed by impinging jet mixing of the lipid in ethanol with two volumes of RNA solutions and one volume of water. The lipid in ethanol is mixed through a mixing cross with the two volumes of RNA solution. A fourth stream of water is mixed with the outlet stream of the cross through an inline tee. (See WO2016010840 FIG. 2.) The LNPs were held for 1 hour at room temperature, and further diluted with water (approximately 1:1 v/v). Diluted LNPs were concentrated using tangential flow filtration on a flat sheet cartridge (Sartorius, 100 kD MWCO) and then buffer exchanged by diafiltration into 50 mM Tris, 45 mM NaCl, 5% (w/v) sucrose, pH 7.5 (TSS). Alternatively, the final buffer exchange into TSS was completed with PD-10 desalting columns (GE). If required, formulations were concentrated by centrifugation with Amicon 100 kDa centrifugal filters (Millipore). The resulting mixture was then filtered using a 0.2 μm sterile filter. The final LNP was stored at 4° C. or −80° C. until further use.
(§3) Additional PCR was performed per the manufacturer's protocols (Illumina) to add chemistry for sequencing. The amplicons were sequenced on an Illumina MiSeq instrument. The reads were aligned to a reference genome (e.g., the human reference genome (hg38), the cynomologus reference genome (mf5), the rat reference genome (rn6), or the mouse reference genome (mm10)) after eliminating those having low quality scores. The resulting files containing the reads were mapped to the reference genome (BAM files), where reads that overlapped the target region of interest were selected and the number of wild type reads versus the number of reads which contain an insertion, substitution, or deletion was calculated.
(§4) The editing percentage (e.g., the “editing efficiency” or “percent editing” or “indel frequency”) is defined as the total number of sequence reads with insertions/deletions (“indels”) or substitutions over the total number of sequence reads, including wild type.
(§5) Lipid nanoparticle formulations of modified sgRNAs targeting human TTR and the cyno matched sgRNA sequences were tested on primary human hepatocytes and primary cyno hepatocytes in a dose response curve. Primary human and cyno hepatocytes were plated as described in Example 1. Both cell lines were incubated at 37° C., 5% CO2 for 24 hours prior to treatment with LNPs. The LNPs used in the experiments detailed in Tables 20-22 were prepared using the cross-flow procedure described above but purified using PD-10 columns (GE Healthcare Life Sciences) and concentrated using Amicon centrifugal filter units (Millipore Sigma), each containing the specified sgRNA and Cas9 mRNA (SEQ ID NO:1). […] LNPs were incubated in hepatocyte maintenance media containing 6% cyno serum at 37° C., 5% CO2 for 5 minutes. […]

TTR [3] = test: TTR editing dose response (EC50, maximum editing) in primary cyno hepatocytes treated with LNP formulated U-depleted Spy Cas9 mRNA and sgRNAs; assay type: cell-based, cynomolgus monkey
Protocol: as §1, §2, §3, §4, §5

[4] = system: potential off-target genomic sites; test: Off-target analysis by oligo insertion based assay in primary human hepatocytes (sgRNAs); assay type: cell-based; conditions: 100 ng Cas9 mRNA, 25 nM sgRNA, 12.5 nM donor oligo, 48 h
Protocol: Off-target analysis of sgRNAs targeting TTR was performed in primary human hepatocytes (PHH) as described in Example 5, with the following modifications. PHH were plated at a density of 33,000 cells per well on collagen-coated 96-well plates as described in Example 1. Twenty-four hours post plating, cells were washed with media and transfected using Lipofectamine RNAiMAX (ThermoFisher, Cat. 13778150) as described in Example 1. Cells were transfected with a lipoplex containing 100 ng Cas9 mRNA, immediately followed by the addition of another lipoplex containing 25 nM of the sgRNA and 12.5 nM of the donor oligo (0.3 μL/well). Cells were lysed 48 hours post-transfection and gDNA was extracted and analyzed as further described in Example 5. The data is graphically represented in FIG. 20.
Fewer sites were detected in PHH for every guide tested as compared to the HekCas9 cell line, with no unique sites detected in PHH alone.

TTR mRNA = TTR mRNA knockdown (quantitative PCR) in primary human hepatocytes treated with LNPs; assay type: cell-based; conditions: PHH; LNP dose 300 ng mRNA cargo; gRNA:mRNA 1:2; 96 h; biological triplicates; vs untreated control
Protocol: In one experiment, PHH were cultured and treated with LNPs comprising Cas9 mRNA (SEQ ID NO:1) and a gRNA of interest (See FIG. 29, Table 36), as described in Example 4. The LNPs were prepared using the cross-flow procedure described above and purified and concentrated using PD-10 columns and Amicon centrifugal filter units, respectively. The LNPs were formulated with an N:P ratio of 6.0 and contained Lipid A, Cholesterol, DSPC, and PEG2k-DMG in a 50:38:9:2 molar ratio, respectively. The LNPs comprised a gRNA:mRNA ratio of 1:2, and the cells were treated at a dose of 300 ng (with respect to the amount of mRNA cargo delivered).
(§6) Ninety-six (96) hours following LNP treatment (with biological triplicates for each condition), mRNA was purified from PHH cells using the Dynabeads mRNA DIRECT Kit (ThermoFisher Scientific) according to the manufacturer's protocol. Reverse Transcription (RT) was performed with Maxima reverse transcriptase (ThermoFisher Scientific) and a poly-dT primer. The resulting cDNA was purified with Ampure XP Beads (Agencourt). For Quantitative PCR, 2% of the purified cDNA was amplified with Taqman Fast Advanced Mastermix and 3 Taqman probe sets, TTR (Assay ID: Hs00174914_m1), GAPDH (Assay ID: Hs02786624_g1), and PPIB (Assay ID: Hs00168719_m1). The assays were run on the QuantStudio 7 Flex Real Time PCR System according to the manufacturer's instructions (Life Technologies). Relative expression of TTR mRNA was calculated by normalizing to the endogenous controls (GAPDH and PPIB) individually, and then averaged.
The groups in FIG. 29 and Table 36 are identified by the gRNA ID used in each LNP preparation.
In a separate experiment, TTR mRNA knockdown was evaluated following treatment with LNPs comprising G000480, G000486, and G000502. The LNPs were formulated and PHH were cultured and treated with the LNPs, each as described in the experiment above in this Example with the exception that the cells were treated at a dose of 100 ng (with respect to the amount of mRNA cargo delivered).
as §6, with “(single treatment” for “(with biological triplicates”, “the High Capacity cDNA Reverse Transcription Kit” for “Maxima reverse transcriptase”, “according to the manufacturer's instructions.” for “and a poly-dT primer. The resulting cDNA was purified with Ampure XP Beads (Agencourt).”, “the” for “the purified”
The groups in FIG. 30 and Table 37 are identified by the gRNA ID used in each LNP preparation.

[5] = LNP with U-depleted Spy Cas9 mRNA and cyno specific sgRNA, 8 point 3-fold dose response starting at 300 ng mRNA, 72 hours
[6] = LNP formulated U-depleted Spy Cas9 mRNA and cyno specific sgRNAs
[7] = LNP formulated U-depleted Spy Cas9 mRNA and human specific sgRNAs

Molecule	12.5 ng mRNA, 3.9 nM sgRNA, Avg % Edit (TTR [1])	Max Editing (TTR [2]; [5])	Max Editing (TTR [3]; [6])	Max Editing (TTR [3]; [7])	Max Editing (TTR [2]; LNP formulated U-depleted Spy Cas9 mRNA and human specific sgRNAs, dose response)	# Sites in PHH (off-target integration sites detected) [4]	Avg % Knockdown (TTR mRNA) (TTR mRNA)
G000506: TTR Cyno specific sgRNA modified sequence, SEQ ID NO: 118; guide sequence of CR005366 (nucleic acid) guide: mA*mU*mA*rCrCrArGrUrCrCrArGrCrGrArGrGrCrArGrGrUrUrUrUrArGrAmGmCmUmAmGmAmAmAmUmAmGmCrArArGrUrUrArArArArUrArArGrGrCrUrArGrUrCrCrGrUrUrArUrCrAmAmCmUmUmGmAmAmAmAmAmGmUmGmGmCmAmCmCmGmAmGmUmCmGmGmUmGmCmU*mU*mU*mU	60.13%	89.49%	99.18%	89.49%	–	–	–
G000509: TTR Cyno specific sgRNA modified sequence, SEQ ID NO: 121; guide sequence of CR005369 (nucleic acid) guide: mA*mA*mA*rGrUrUrCrUrArGrArUrGrCrCrGrUrCrCrGrGrUrUrUrUrArGrAmGmCmUmAmGmAmAmAmUmAmGmCrArArGrUrUrArArArArUrArArGrGrCrUrArGrUrCrCrGrUrUrArUrCrAmAmCmUmUmGmAmAmAmAmAmGmUmGmGmCmAmCmCmGmAmGmUmCmGmGmUmGmCmU*mU*mU*mU	74.47%	–	–	–	–	–	–
G000510: TTR Cyno specific sgRNA modified sequence, SEQ ID NO: 122; guide sequence of CR005370 (nucleic acid) guide: mA*mC*mU*rUrGrUrCrUrUrCrUrCrUrArUrArCrCrCrArGrUrUrUrUrArGrAmGmCmUmAmGmAmAmAmUmAmGmCrArArGrUrUrArArArArUrArArGrGrCrUrArGrUrCrCrGrUrUrArUrCrAmAmCmUmUmGmAmAmAmAmAmGmUmGmGmCmAmCmCmGmAmGmUmCmGmGmUmGmCmU*mU*mU*mU	61.87%	–	–	–	–	–	–
G000571: TTR sgRNA modified sequence, Human, SEQ ID NO: 112; guide sequence of CR005301 (nucleic acid) guide: mG*mU*mC*rArCrArGrArArArCrArCrUrCrArCrCrGrUrGrUrUrUrUrArGrAmGmCmUmAmGmAmAmAmUmAmGmCrArArGrUrUrArArArArUrArArGrGrCrUrArGrUrCrCrGrUrUrArUrCrAmAmCmUmUmGmAmAmAmAmAmGmUmGmGmCmAmCmCmGmAmGmUmCmGmGmUmGmCmU*mU*mU*mU	–	–	–	97.03%	71.28%	1	96.17%
G000505: TTR Cyno specific sgRNA modified sequence, SEQ ID NO: 117; guide sequence of CR005365 (nucleic acid) guide: mC*mA*mU*rUrGrArCrArGrCrArGrGrArCrUrGrCrCrUrGrUrUrUrUrArGrAmGmCmUmAmGmAmAmAmUmAmGmCrArArGrUrUrArArArArUrArArGrGrCrUrArGrUrCrCrGrUrUrArUrCrAmAmCmUmUmGmAmAmAmAmAmGmUmGmGmCmAmCmCmGmAmGmUmCmGmGmUmGmCmU*mU*mU*mU	–	13.48%	99.97%	13.48%	–	–	–
